The values below come from the nanobody polyreactivity screen of Harvey et al. (2022).

The data set in a line: yeast display, Sf9 membrane polyspecificity reagent, FACS + sequencing; frameworks hold sequencing errors. Summed up:
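Genes from sorted yeast were amplified by colony PCR, read by MiSeq 2 × 250 sequencing and filtered on CDR length. These cells carried a synthetic nanobody library in Saccharomyces cerevisiae BJ5465 and were sorted by FACS into low and high (top ~1%) gates on anti-HA and streptavidin fluorescence. Polyreactivity is labelled according to the gate of origin.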
As for “QVQLVESGGGLVQAGGRLRLSCAASGRTMGWYRQAPRKERELVAAITSGGGSTYYADSVKWRFTISRDNAKNTVYLQMNSLKPEDTAVYYCARTTIAQLHSIVAPHDYWGQGTQVNVSS”, the “polyreactivity (PSR sort gate)” value is “low polyreactivity”.
Consider “QVQLVESGGGLVQAGGRLRLSCAASGSIFERNVMGWYRQAPGKERELVAAITSGGSTNYADSVKGRFTISRDNAKNTVYLQMNSLKPEETAVYYCAADVPYRSRFYRYRLSGGDYWGQGSQVTVSS”, for which the “polyreactivity (PSR sort gate)” value is given as “low polyreactivity”.
For “QVQLVESGGGLVQAGGRLRLSCAASGSIFFDNTMGWYRQAPWKERELVASITYSGSTYADSVKGRFTISRDNAKNTVYLQMNSLKPEDTAVYYCNTESYWKVERFDYWGQGTHVTVSS”, the “polyreactivity (PSR sort gate)” value was “low polyreactivity”.
As to “QVQLVESGGGLVQAGGRLRLSCAASGSIFHLYMGWYRQAPGKERELVAVINSSGDSTYYADSVKGRFTISRDNAKNTVYLQMNSLKPEDTAVYYCNARRRGPRYLYGYWGQGSQVTVSS”, the “polyreactivity (PSR sort gate)” value was “high polyreactivity”.
As for “QVQLVESGGGLVQAGGRLRLSCAASGSIFHYNAMGWYRQAPGKESELVAAITTSGGSTYYADSVKGRFTISLDNAKNSVYLQMNSLKPEDTAVYYCNVVTRYYTMEYWGQGTQVTVSS”, the “polyreactivity (PSR sort gate)” value is “high polyreactivity”.
With “QVQLVESGGGLVQAGGRLRLSCAASGSIFPFYAMGWYRQAPGKERELVAAISDRGGSTYYADSVKGRFTISRDNAKNTVYLQMISLKPEDTAVYYCAKGGEVSQGYTDEYDYWGQGTQVTVSS”, the “polyreactivity (PSR sort gate)” value is listed as “low polyreactivity”.
For the sequence “QVQLVESGGGLVQAGGRLRLSCAASGSIFQFYAMGWYRQAPGKERELVAAINWSGGSTYYADSVKGRFTISRDNAKNTVYLQMNSLKPEETAVYYCNALRRIGRYYKAGGYGYWGQGTQVTVSS”, the “polyreactivity (PSR sort gate)” value is listed as “high polyreactivity”.
For the sequence “QVQLVESGGGLVQAGGRLRLSCAASGSIFRLYAMGWYRQAPGKEREFVAGITRRTGSTYYADSVKGRFTISRDNAKNTVNLQMNSLKPEDTAVYYCAKRDARATPFGYWGQGTQVTVSS”, the “polyreactivity (PSR sort gate)” value was “high polyreactivity”.
In the case of “QVQLVESGGGLVQAGGRLRLSCAASGSIFRRYAMGWYRQAPGKERELVAAISSKGGSTYYADSVKGRFTISRDNAKNTVYLQMNSLKPEDTAVYYCNAQLVHYRFSSVFTYTIDDYWGQGTQVTVSS” it was “high polyreactivity”.
“QVQLVESGGGLVQAGGRLRLSCAASGSIFRWYAMGLYRQAPGKERELVAAITSGGSTYYADSVKGRFTISRDNAKNCVYLQMNSLKPEDTAVYYCNAKTYYPPFGYWGQGTQVTVSS”: the “polyreactivity (PSR sort gate)” value was “low polyreactivity”.
The result for “QVQLVESGGGLVQAGGRLRLSCAASGSIFYNYAMGWYRQAPGKERELVAAITRSGGSTYYADSVKGRFTISRDNAKNTVYLQMNSLKPEDTAVYYCAARYPFGSLGRYGYWGQGTQVTVSS” reads “high polyreactivity”; that for “QVQLVESGGGLVQAGGRLRLSCAASGSIIISNGMGWSRQAPGKERELVATISWIGGSTYYADSVKGRFTISRDNAKNTVYLQMNSLKPEDTAVYYCAADVVLARPFEGDYWGQGTQVTVSS”, “low polyreactivity”; that for “QVQLVESGGGLVQAGGRLRLSCAASGSIYDDYAMGWNRQAPGKEREFVAAIDYSGGSTYYADSVKGRFTISRDNAKNTVYFQKNSLKPEDTAVYYCAKEAITRTFQYRHDYWGQGTQVTVSS”, “low polyreactivity”.
The result for “QVQLVESGGGLVQAGGRLRLSCAASGSTFGANAMGWYRQAPGKEREFVAAISRSGVRTYYADSVKGRFTISRDNAKNTVFLQMNSLKPEDTAVYYCAADGYWWTDTRYDYCGQGTQVTVSS” reads “low polyreactivity”.
Turning to “QVQLVESGGGLVQAGGRLRLSCAASGSTFPKYAMGWYRQAPGKERELVASISVTTGSTYYADSVKGRFTISRDNAKNTVYLQMNSLKPEDTAVYYCAKRTYSRKFRGAYNYWGQGTQVTVSS”, the “polyreactivity (PSR sort gate)” value is “high polyreactivity”.
As to “QVQLVESGGGLVQAGGRLRLSCAASGSTFQQYGMGWYRQAPGKERELVAAISGGVSTYYADSLKGLFTISRDHAKNTVYLQMYSLKPEDTAVYYCNADTSYSEWGSWYYEYDYWGQGTQVTVSS”, the “polyreactivity (PSR sort gate)” value is on record as “low polyreactivity”.
The result for “QVQLVESGGGLVQAGGRLRLSCAASGSTFRYYAMGWYRQAPWKERELVAAISSTGTRTYYADSVKGRFTISRDNAKNTVYLQMNSLKPEDTAVSYCAADYVRYATRYDYWGQGTQVTVSS” reads “high polyreactivity”; that for “QVQLVESGGGLVQAGGRLRLSCAASGSTFSYYAMGWYRQAPGKEREMVAAISRTGGSTYYADSVKGRCTISRDNAKNTVYLQMNSLKAEDTAFYYCNARAPVGTFDYDYWGQGTQVTVSS”, “low polyreactivity”; that for “QVQLVESGGGLVQAGGRLRLSCAASGSTFTDYAMGWYRQAPRKERELVASITSGGRTNYADSVKGRFTITRDNAKNTVYLQMNSLKPEDTAVYYCAADYSVPTSQAYDYWGQGTQVTVSS”, “low polyreactivity”.
For the sequence “QVQLVESGGGLVQAGGRLRLSCAASGSTFYNYAMGWYRQAPGKERELVASIPWNGGSTYYADSVKGRFTISRDNAKNTVYLQMNSLKPEDTAVYYCAADWTWTYPYDYWGQGTQVTVSS”, the “polyreactivity (PSR sort gate)” value is listed as “low polyreactivity”.
On to “QVQLVESGGGLVQAGGRLRLSCAASGSTFYSNAMGWYRQAPGKERELVASIRFSGVITTYADSVKGRFTISRDNAKNTVYLQMNSLKPEDTAVYYCDAGYLSTTAYDYWGQGTQVTVSS”, for which the “polyreactivity (PSR sort gate)” value is reported as “low polyreactivity”.
In the case of “QVQLVESGGGLVQAGGRLRLSCAASGSTIRLYAKGWYRQAPGKERELVAAISVSGGSTHYADSVKGRFTISRDNAKNTVYLQMNSLKPEDTAVYYCNAAGNPVSRYHYDYWGQGTQVTVSS” it was “high polyreactivity”; in that of “QVQLVESGGGLVQAGGRLRLSCAASGTIFDFYAMGWYRQAPGKERELVATITASGGSTYYADSVKGRFTISRDNAKNTVYLQMKSLKPEDTAVYYCAAVGPHWYGQGWALYRFEYWGQGTQVTVSS”, “low polyreactivity”.
“QVQLVESGGGLVQAGGRLRLSCAASGYIFSYYAMAWYRQAPGKERELVASITSSGGSTYYADSVKGRFTISRDNAKNTVYLQMNSLKPEVTAVSYCAAYSLYGYDYWGQGTQVTVSS”: the “polyreactivity (PSR sort gate)” value is “low polyreactivity”.
On to “QVQLVESGGGLVQAGGRLRLSCAASGYTFTHYAMGLYRQAPVKESELVASIRNSGSRTYYADSVKGRFTISPDNAKNTVYLQLNSLKPEDTAVYYCAAKTTTPYRYIYYYWGQGTQVTVSS”, for which the “polyreactivity (PSR sort gate)” value is “high polyreactivity”.
The result for “QVQLVESGGGLVQAGGRLRLSCAASLYIYGGYGMGWYRKAPGKERELVAVITSSVSTDYADSVKGSFTISRDNAKNTVYLQMKSLKPEDTAVYYSSADFLWYIYNIGTSLEFEYWGQGTQVTVSS” reads “low polyreactivity”; that for “QVQLVESGGGLVQAGGRLRLSCAASVRILGKYAMGWYRQAPGKERELVAAIRLRGGSTYYADSVKGRFTISRDNAKNTVYLQMNSLKPEDTAVYYCAARYWDRSQAYYYWGQGTQVTVSS”, “high polyreactivity”.
Turning to “QVQLVESGGGLVQAGGRLRLSCAATGSTFEVYAMGWYRQAPGKERELVAVINVSDGSTYYADSVKGRFTISRDNAKNTVYLQMNSLKPEDTAVYLCAAYLYNRPYQLTGYYDGYGYWGQGTQVTVSS”, the “polyreactivity (PSR sort gate)” value is on record as “low polyreactivity”.
On to “QVQLVESGGGLVQAGGRLRLSCADSGIIFRAYTIGWYRQATGKERELVAGITSGGSTYYADSVKGRFTISRDNAKNTVYLQMNSLKPEDTAVYYCATYYGRWTPIPYEYWGQGTQVTVSS”, for which the “polyreactivity (PSR sort gate)” value is “high polyreactivity”.
For the sequence “QVQLVESGGGLVQAGGRLRLSCAPSGGIFNPNVMGGYRQSPGKETELVASITGRGGNTYYADSVKGRFTISRDNAKNTVYLQMNSLKPEDTAVYYCAAAIPHHSRVYYWGQGPQVTVSS”, the “polyreactivity (PSR sort gate)” value is reported as “low polyreactivity”.
The result for “QVQLVESGGGLVQAGGRLRLSCGASGIIFVYYTMGWDRQAPGKERELVAAITSGGSTYYADSVKGRFTISRDNAKNTVFLQINSLKPEDTAVYYCAAVGRPPYAGDRGFRGQGTQVTVSS” reads “high polyreactivity”.
As for “QVQLVESGGGLVQAGGRLRLSCTASGIIFGTYAMGWYRQAPGKERELVAAISSSGVSTYYADSVKGRFTISRDNAKNTVYLQMNSLKPEDTAVYYCAAPLHYGYYYWGQGTQVTVSS”, the “polyreactivity (PSR sort gate)” value was “high polyreactivity”.
For “QVQLVESGGGLVQAGGRLRLSGAASGLIFTTYAMGWSRQAPGKVRELVAAISSSGDSTYYADSVKGRFTISRDNAKNTVYLQMNSLKPEDTAVYYRAARYYYRGYEFGYWGQGTQVTVSS”, the “polyreactivity (PSR sort gate)” value is reported as “high polyreactivity”.
The result for “QVQLVESGGGLVQAGGRLRRICAASGRIYSRYTMGWYRQAPGKERQLVAVITSGGSTYYADSVKGRFTISRDNAKNTVYLQMNSLKPDDTAVYYCNAVRFTYGGYLRRYDYWGHGTQVTVSS” reads “high polyreactivity”; that for “QVQLVESGGGLVQAGGRRRLSCAASGSTYNPYPMGWYRQAPGKERELLATITWRGTSTYYADSVKGRFTISRDNAKYTVYLQMNSLKPEDTAVYYGAKGFVYNYPKTYKSYSTYYYWGQGTQVTVSS”, “high polyreactivity”.
The result for “QVQLVESGGGLVQAGGSDRLSCAASGSIIDYYAMGWYRQAPGKERELVADITVTGDGTYYADSVKGRFTISRDNAKNTVYLQMNSLKPEDTAVYYCAAAGVYYGVRGTTYAYDYWGQGTQVTVSS” reads “low polyreactivity”; that for “QVQLVESGGGLVQAGGSFRLSCAASGFTLYGNAMGWSRQAPGNDRELVATIRSTGSTTYADSVKGRFTISRDNAKNTVYLQMNSLKPEDTAVHYCAKVSTYGGRHRWPGSIYDYWGQGTQVTVSS”, “low polyreactivity”.
In the case of “QVQLVESGGGLVQAGGSFRLSCAASGSIFDGYAMGWYRQAPGTERELVAAISSGGDSTYYADSVKGRFTISRDNAKNTVYLQMNSLKPEDTAVYYCNADSLVGHSYDYWGQGTQVTVSS” it was “low polyreactivity”; in that of “QVQLVESGGGLVQAGGSFRLSCAASGSIFVVYAMGWYRQAPGKERELVAAITSGGSTYYADSVKGRFTISRDNAKNTVYLQMNSLKPEDTAVYYCATTYRDGVYELTTFDYWGQGTQVTVSS”, “low polyreactivity”.
Take “QVQLVESGGGLVQAGGSFRLSSAPSGSIFVVYAMGGYIQAPGKERELVAAITSGGSTYYADSVKGRFTISRDNAKNTVYLQMNSLKPEDTAVYYCATTYRDGVYELSTFDYWGQGTQVTVSS”: the “polyreactivity (PSR sort gate)” value was “low polyreactivity”.
